Ki data for 10 molecules are collected here from patent US20090156483A1 (IPSEN PHARMA S A S, published 2009).

B1: (Ac-Gly^1,Aib^2,10,Glu(NH-hexyl)^3,17)hGhrelin(1-28)-NH2 (peptide)
peptide: Ac-G[Aib][Glu(NH-hexyl)]FLSPEH[Aib]RVQQRK[Glu(NH-hexyl)]SKKPPAKLQPR-NH2
SMILES: CCCCCCNC(=O)CC[C@H](NC(=O)[C@H](CCCCN)NC(=O)[C@H](CCCNC(=N)N)NC(=O)[C@H](CCC(N)=O)NC(=O)[C@H](CCC(N)=O)NC(=O)[C@@H](NC(=O)[C@H](CCCNC(=N)N)NC(=O)C(C)(C)NC(=O)[C@H](Cc1c[nH]cn1)NC(=O)[C@H](CCC(=O)O)NC(=O)[C@@H]1CCCN1C(=O)[C@H](CO)NC(=O)[C@H](CC(C)C)NC(=O)[C@H](Cc1ccccc1)NC(=O)[C@H](CCC(=O)NCCCCCC)NC(=O)C(C)(C)NC(=O)CNC(C)=O)C(C)C)C(=O)N[C@@H](CO)C(=O)N[C@@H](CCCCN)C(=O)N[C@@H](CCCCN)C(=O)N1CCC[C@H]1C(=O)N1CCC[C@H]1C(=O)N[C@@H](C)C(=O)N[C@@H](CCCCN)C(=O)N[C@@H](CC(C)C)C(=O)N[C@@H](CCC(N)=O)C(=O)N1CCC[C@H]1C(=O)N[C@@H](CCCNC(=N)N)C(N)=O
notes: Synthetic ghrelin analog; calculated MW 3449.14, found 3449.20; also called #146
B2: (Ac-Gly^1,Aib^2,10,Glu(NH-hexyl)^3,Lys(biotinyl)^17)hGhrelin(1-28)-NH2 (peptide)
peptide: Ac-G[Aib][Glu(NH-hexyl)]FLSPEH[Aib]RVQQRKK(Biotin)SKKPPAKLQPR-NH2
SMILES: CCCCCCNC(=O)CC[C@H](NC(=O)C(C)(C)NC(=O)CNC(C)=O)C(=O)N[C@@H](Cc1ccccc1)C(=O)N[C@@H](CC(C)C)C(=O)N[C@@H](CO)C(=O)N1CCC[C@H]1C(=O)N[C@@H](CCC(=O)O)C(=O)N[C@@H](Cc1c[nH]cn1)C(=O)NC(C)(C)C(=O)N[C@@H](CCCNC(=N)N)C(=O)N[C@H](C(=O)N[C@@H](CCC(N)=O)C(=O)N[C@@H](CCC(N)=O)C(=O)N[C@@H](CCCNC(=N)N)C(=O)N[C@@H](CCCCN)C(=O)N[C@@H](CCCCNC(=O)CCCC[C@@H]1SC[C@@H]2NC(=O)N[C@@H]21)C(=O)N[C@@H](CO)C(=O)N[C@@H](CCCCN)C(=O)N[C@@H](CCCCN)C(=O)N1CCC[C@H]1C(=O)N1CCC[C@H]1C(=O)N[C@@H](C)C(=O)N[C@@H](CCCCN)C(=O)N[C@@H](CC(C)C)C(=O)N[C@@H](CCC(N)=O)C(=O)N1CCC[C@H]1C(=O)N[C@@H](CCCNC(=N)N)C(N)=O)C(C)C
notes: Synthetic ghrelin analog; calculated MW 3591.32, found 3591.50; also called #166
B3: (Aib^1,2,10,Glu(NH-hexyl)^3,17)hGhrelin(1-28)-NH2 (peptide)
peptide: [Aib][Aib][Glu(NH-hexyl)]FLSPEH[Aib]RVQQRK[Glu(NH-hexyl)]SKKPPAKLQPR-NH2
modifications: N-terminus assumed
SMILES: CCCCCCNC(=O)CC[C@H](NC(=O)[C@H](CCCCN)NC(=O)[C@H](CCCNC(=N)N)NC(=O)[C@H](CCC(N)=O)NC(=O)[C@H](CCC(N)=O)NC(=O)[C@@H](NC(=O)[C@H](CCCNC(=N)N)NC(=O)C(C)(C)NC(=O)[C@H](Cc1c[nH]cn1)NC(=O)[C@H](CCC(=O)O)NC(=O)[C@@H]1CCCN1C(=O)[C@H](CO)NC(=O)[C@H](CC(C)C)NC(=O)[C@H](Cc1ccccc1)NC(=O)[C@H](CCC(=O)NCCCCCC)NC(=O)C(C)(C)NC(=O)C(C)(C)N)C(C)C)C(=O)N[C@@H](CO)C(=O)N[C@@H](CCCCN)C(=O)N[C@@H](CCCCN)C(=O)N1CCC[C@H]1C(=O)N1CCC[C@H]1C(=O)N[C@@H](C)C(=O)N[C@@H](CCCCN)C(=O)N[C@@H](CC(C)C)C(=O)N[C@@H](CCC(N)=O)C(=O)N1CCC[C@H]1C(=O)N[C@@H](CCCNC(=N)N)C(N)=O
notes: Synthetic ghrelin analog; calculated MW 3435.16, found 3435.00; also called #70
B4: (Ac-Gly^1,Aib^2,Glu(NH-hexyl)^3,17)hGhrelin(1-28)-NH2 (peptide)
peptide: GXEFLSPEHQRVQQRKESKKPPAKLQPR
modifications: N-terminal acetyl (Ac-Gly at 1); Aib at 2; Glu(NH-hexyl) at 3 and 17; C-terminal amide
notes: Synthetic ghrelin analog; calculated MW 3492.17, found 3492.00
B5: (Aib^2,Lys(myristyl)^17)hGhrelin(1-28)-NH2 (peptide)
peptide: G[Aib]S(Octanoyl)FLSPEHQRVQQRKK(Myristoyl)SKKPPAKLQPR-NH2
modifications: N-terminus assumed
SMILES: CCCCCCCCCCCCCC(=O)NCCCC[C@H](NC(=O)[C@H](CCCCN)NC(=O)[C@H](CCCNC(=N)N)NC(=O)[C@H](CCC(N)=O)NC(=O)[C@H](CCC(N)=O)NC(=O)[C@@H](NC(=O)[C@H](CCCNC(=N)N)NC(=O)[C@H](CCC(N)=O)NC(=O)[C@H](Cc1c[nH]cn1)NC(=O)[C@H](CCC(=O)O)NC(=O)[C@@H]1CCCN1C(=O)[C@H](CO)NC(=O)[C@H](CC(C)C)NC(=O)[C@H](Cc1ccccc1)NC(=O)[C@H](COC(=O)CCCCCCC)NC(=O)C(C)(C)NC(=O)CN)C(C)C)C(=O)N[C@@H](CO)C(=O)N[C@@H](CCCCN)C(=O)N[C@@H](CCCCN)C(=O)N1CCC[C@H]1C(=O)N1CCC[C@H]1C(=O)N[C@@H](C)C(=O)N[C@@H](CCCCN)C(=O)N[C@@H](CC(C)C)C(=O)N[C@@H](CCC(N)=O)C(=O)N1CCC[C@H]1C(=O)N[C@@H](CCCNC(=N)N)C(N)=O
notes: Synthetic ghrelin analog; calculated MW 3577.35, found 3577.2; also called #217
B6: (Lys(biotinyl)^17)hGhrelin(1-28)-NH2 (peptide)
peptide: GSS(Octanoyl)FLSPEHQRVQQRKK(Biotin)SKKPPAKLQPR-NH2
modifications: N-terminus assumed
SMILES: CCCCCCCC(=O)OC[C@H](NC(=O)[C@H](CO)NC(=O)CN)C(=O)N[C@@H](Cc1ccccc1)C(=O)N[C@@H](CC(C)C)C(=O)N[C@@H](CO)C(=O)N1CCC[C@H]1C(=O)N[C@@H](CCC(=O)O)C(=O)N[C@@H](Cc1c[nH]cn1)C(=O)N[C@@H](CCC(N)=O)C(=O)N[C@@H](CCCNC(=N)N)C(=O)N[C@H](C(=O)N[C@@H](CCC(N)=O)C(=O)N[C@@H](CCC(N)=O)C(=O)N[C@@H](CCCNC(=N)N)C(=O)N[C@@H](CCCCN)C(=O)N[C@@H](CCCCNC(=O)CCCC[C@@H]1SC[C@@H]2NC(=O)N[C@@H]21)C(=O)N[C@@H](CO)C(=O)N[C@@H](CCCCN)C(=O)N[C@@H](CCCCN)C(=O)N1CCC[C@H]1C(=O)N1CCC[C@H]1C(=O)N[C@@H](C)C(=O)N[C@@H](CCCCN)C(=O)N[C@@H](CC(C)C)C(=O)N[C@@H](CCC(N)=O)C(=O)N1CCC[C@H]1C(=O)N[C@@H](CCCNC(=N)N)C(N)=O)C(C)C
notes: Synthetic ghrelin analog; calculated MW 3595.27, found 3594.90; also called #78
B7: (Ac-Aib^1,Aib^2,10,Glu(NH-hexyl)^3,17)hGhrelin(1-28)-NH2 (peptide)
peptide: Ac-[Aib][Aib][Glu(NH-hexyl)]FLSPEH[Aib]RVQQRK[Glu(NH-hexyl)]SKKPPAKLQPR-NH2
SMILES: CCCCCCNC(=O)CC[C@H](NC(=O)[C@H](CCCCN)NC(=O)[C@H](CCCNC(=N)N)NC(=O)[C@H](CCC(N)=O)NC(=O)[C@H](CCC(N)=O)NC(=O)[C@@H](NC(=O)[C@H](CCCNC(=N)N)NC(=O)C(C)(C)NC(=O)[C@H](Cc1c[nH]cn1)NC(=O)[C@H](CCC(=O)O)NC(=O)[C@@H]1CCCN1C(=O)[C@H](CO)NC(=O)[C@H](CC(C)C)NC(=O)[C@H](Cc1ccccc1)NC(=O)[C@H](CCC(=O)NCCCCCC)NC(=O)C(C)(C)NC(=O)C(C)(C)NC(C)=O)C(C)C)C(=O)N[C@@H](CO)C(=O)N[C@@H](CCCCN)C(=O)N[C@@H](CCCCN)C(=O)N1CCC[C@H]1C(=O)N1CCC[C@H]1C(=O)N[C@@H](C)C(=O)N[C@@H](CCCCN)C(=O)N[C@@H](CC(C)C)C(=O)N[C@@H](CCC(N)=O)C(=O)N1CCC[C@H]1C(=O)N[C@@H](CCCNC(=N)N)C(N)=O
notes: Synthetic ghrelin analog; calculated MW 3477.19, found 3477.40; also called #158
B8: (Ac-Gly^1,Aib^2,8,Glu(NH-hexyl)^3,17)hGhrelin(1-28)-NH2 (peptide)
peptide: GXEFLSPXHQRVQQRKESKKPPAKLQPR
modifications: N-terminal acetyl (Ac-Gly at 1); Aib at 2 and 8; Glu(NH-hexyl) at 3 and 17; C-terminal amide
notes: Synthetic ghrelin analog; calculated MW 3448.16, found 3447.98
B9: (Aib^2,10,Glu(NH-hexyl)^3,17)hGhrelin(1-28)-NH2 (peptide)
peptide: G[Aib][Glu(NH-hexyl)]FLSPEH[Aib]RVQQRK[Glu(NH-hexyl)]SKKPPAKLQPR-NH2
modifications: N-terminus assumed
SMILES: CCCCCCNC(=O)CC[C@H](NC(=O)[C@H](CCCCN)NC(=O)[C@H](CCCNC(=N)N)NC(=O)[C@H](CCC(N)=O)NC(=O)[C@H](CCC(N)=O)NC(=O)[C@@H](NC(=O)[C@H](CCCNC(=N)N)NC(=O)C(C)(C)NC(=O)[C@H](Cc1c[nH]cn1)NC(=O)[C@H](CCC(=O)O)NC(=O)[C@@H]1CCCN1C(=O)[C@H](CO)NC(=O)[C@H](CC(C)C)NC(=O)[C@H](Cc1ccccc1)NC(=O)[C@H](CCC(=O)NCCCCCC)NC(=O)C(C)(C)NC(=O)CN)C(C)C)C(=O)N[C@@H](CO)C(=O)N[C@@H](CCCCN)C(=O)N[C@@H](CCCCN)C(=O)N1CCC[C@H]1C(=O)N1CCC[C@H]1C(=O)N[C@@H](C)C(=O)N[C@@H](CCCCN)C(=O)N[C@@H](CC(C)C)C(=O)N[C@@H](CCC(N)=O)C(=O)N1CCC[C@H]1C(=O)N[C@@H](CCCNC(=N)N)C(N)=O
notes: Synthetic ghrelin analog; calculated MW 3407.10, found 3407.20; also called #58
B10: (Aib^2,8,Ser^3,Glu(NH-hexyl)^17)hGhrelin(1-28)-NH2 (peptide)
peptide: GXSFLSPXHQRVQQRKESKKPPAKLQPR
modifications: Aib at 2 and 8; Ser at 3 (plain, not acylated); Glu(NH-hexyl) at 17; C-terminal amide
notes: Synthetic ghrelin analog; calculated MW 3280.91 (fits an unacylated Ser 3), found 3281.60; also called #219

The Ki is a measure of affinity in units of concentration, obtained from inhibition or displacement. Low values mean a stronger hold on the target, high ones a looser hold on the target.

*1 amine or outer side, *2 acyl side, *3 side chain or, on linkers, in order; H or OH if unused. Where no end group is shown, it is not given here. [ ]: non-standard residue; d: D form. The star is where a group is joined. Glu(NH-hexyl) = N5-hexyl-L-glutamine, CCCCCCNC(=O)CC[C@H](N[*:1])C(=O)[*:2]; Biotin = O=C1N[C@H]2[C@H](CS[C@H]2CCCCC(=O)*)N1; Myristoyl = CCCCCCCCCCCCCC(=O)*; Octanoyl = CCCCCCCC(=O)*; Aib = CC(C)(N)C(=O)O

The target in this assay is T1, human GH secretagogue receptor (human, UniProt Q92847 1-366).
T1 construct: whole, on cells; the Ca2+ assay used the whole cells; also called hGHS-R; ghrelin receptor
T1 sequence (Q92847 whole entry): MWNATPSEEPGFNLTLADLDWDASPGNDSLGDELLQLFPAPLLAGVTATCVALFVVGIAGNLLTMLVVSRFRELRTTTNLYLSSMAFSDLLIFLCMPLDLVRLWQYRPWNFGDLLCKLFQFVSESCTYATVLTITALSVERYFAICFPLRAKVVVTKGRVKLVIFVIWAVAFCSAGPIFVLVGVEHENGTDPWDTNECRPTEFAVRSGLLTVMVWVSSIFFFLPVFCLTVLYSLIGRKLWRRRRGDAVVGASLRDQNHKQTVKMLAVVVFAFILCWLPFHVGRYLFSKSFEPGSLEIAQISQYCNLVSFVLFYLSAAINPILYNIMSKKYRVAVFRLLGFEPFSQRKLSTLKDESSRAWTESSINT
Nature of the assay: radioligand competition, (125I)ghrelin on membranes of CHO-K1 cells expressing hGHS-R. As for the experimental part: Membranes for radioligand binding studies can be and were prepared by homogenization of the foregoing CHO-K1 cells expressing the human recombinant GHS receptor in about 20 ml of ice-cold 50 mM Tris-HCl with a Brinkman Polytron® (Brinkman®, Westbury, N.Y., U.S.A.) at setting 6 for about 15 seconds. The homogenates were washed twice by centrifugation (39,000 g/10 minutes) and the final pellets were resuspended in about 50 mM Tris-HCl containing 2.5 mM MgCl₂ and 0.1% bovine serum albumin (BSA). For the selected assay, aliquots of approximately 0.4 ml were incubated with 0.05 nM (¹²⁵I)ghrelin (˜2000 Ci/mmol; Perkin Elmer Life Sciences@, Boston, Mass., U.S.A.) with and without 0.05 ml of unlabeled competing test peptide. After approximately 60 minutes at 4° C., the bound (¹²⁵I)ghrelin was separated from the free ghrelin by rapid filtration through GF/C filters (available from Brandel®, Gaithersburg, Md., U.S.A.) which were pre-soaked in 0.5% polyethyleneimine/0.1% BSA. The filters were then washed 3 times with 5-ml aliquots of ice-cold 50 mM Tris-HCl and 0.1% BSA. The bound radioactivity trapped on the filters was counted by gamma spectrometry (using a spectrometer from Wallace LKB®, Gaithersburg, Md., U.S.A.). Specific binding was determined by subtracting (¹²⁵I)ghrelin bound in the presence of 1000 nM ghrelin (available from Bachem®, Torrence, Calif., U.S.A.) from the total (¹²⁵I)ghrelin bound.
A selection of the preferred embodiments was tested using the receptor binding assay discussed above and the results are reported in Table 2 presented below.
For orientation: In a radioligand displacement assay an active substance lowers the binding of a labelled ligand.
Turning to B1, the Ki is 0.99 nM.
Take B2: the affinity, expressed as Ki, was 1.28 nM.
B3: the Ki was determined as 0.63 nM.
The figure for B4 is 1.68 nM.
As to B5, the Ki is 0.16 nM.
B6 had a Ki of 0.07 nM.
As for B7, the affinity, expressed as Ki, was 24.4 nM.
In the case of B8, the Ki was found to be 2.94 nM.
To B9 belongs 0.4 nM; to B10, 214 nM.
